From a protein production outcome set (Wang et al. 2014) come the findings set out here.
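Also: failed if final PepcDB status was selected cloned or expressed and not failed if soluble or beyond.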

A short description of this data set: label from the status in PepcDB records.
Regarding “MSLAKPIEAHTVSPVNPNAQQTTKTVMNWLAHLPNRTENRVLSGAFGGYSHDTFSMAEADRIRSATGQSPAIYGCDYARGWLETANIEDSIDVSCNGDLMSYWKNGGIPQISLHLANPAFQSGHFKTPITNDQYKKILDSSTVEGKRLNAMLSKIADGLQELENQGVPVLFRPLHEMNGEWFWWGLTSYNQKDNERISLYKQLYKKIYHYMTDTRGLDHLIWVYSPDANRDFKTDFYPGASYVDIVGLDAYFQDAYSINGYDQLTALNKPFAFTEVGPQTANGSFDYSLFINAIKQKYPKTIYFLAWNDEWSAAVNKGASALYHDSWTLNKGEIWNGDSLTPIVEEGHHHHHH”, the protein production entry is “not failed”. Consider “MSLANKPLAKALETISGIPITPFRKSDGSIDWHHYKETVDRIVDNGIDVIVPCGNTSEFYALSLEEAKEEVRRTVEYVHGRALVVAGIGYATSTAIELGNAAKAAGADAVMIHMPIHPYVTAGGVYAYFRDIIEALDFPSLVYFKDPEISDRVLVDLAPLQNLVGVKYAINDLPRFAKVVRSIPEEHQIAWICGTAEKWAPFFWHAGAKGFTSGLVNLLPQKAVEMLEALRNNDNDAVWRIWEDIVPFEDLRGKYNQGNNVVVIKEAMEMLRQNAGVTRAPVNELSNEDKQLVTELLSSWKLLQPTKGEGHHHHHH”, for which the protein production entry is recorded as “not failed”. In the case of “MSLAPYRVDFILLEHFSMASFTVAMDVLVTANLLRADSFQFTPLSLDGDRVLSDLGLELVATELSAAALKELDLLVVCGGLRTPLKYPELDRLLNDCAAHGMALGGLWNGAWFLGRAGVLDDYGCSIHPEQRASLSERSPQTRITPASFTLDRDRLSAASPNGAMELMLGLVRRLYGDGLAEGVEEILSFSGAREGHHHHHH”, the protein production result is given as “not failed”.

As for “MSLAQKLRQASSRLLGVVFELQQPFHGDLVEQIYAAATRRGYDVMLSAVAPSRAEKVAVQALMRERCEAAILLGTRFDTDELGALADRVPALVVARASGLPGVGAVRGDDVAGITLAVDHLTELGHRNIAHIDGADAPGGADRRAGFLAAMDRHGLSASATVVTGGTTETEGAEGMHTLLEMPTPPTAVVAFNDRCATGVLDLLVRSGRDVPADISVVGYDDSRLARIPHVQMTTISQDATHMAEAAVDGALAQISGDKAVDLVLAPHLVRRATTGPVAHREGHHHHHH”, the protein production entry is reported as “not failed”. With “MSLAQYPVIGIDDDEFATAKKLITKQEVRAVTLSKLRLQDDLVMWDIGAGSASVSIEASNLMPNGRIFALERNPQYLGFIRDNLKKFVARNVTLVEAFAPEGLDDLPDPDRVFIGGSGGMLEEIIDAVDRRLKSEGVIVLNAVTLDTLTKAVEFLEDHGYMVEVACVNVAKTKGLTEYKMFESHNPVYIITAWKSDEGHHHHHH”, the protein production entry is reported as “not failed”. For “MSLASLIGLAVCTGNAFSPALAAEAKQPNLVIIMADDLGYGDLATYGHQIVKTPNIDRLAQEGVKFTDYYAPAPLSSPSRAGLLTGRMPFRTGIRSWIPSGKDVALGRNELTIANLLKAQGYDTAMMGKLHLNAGGDRTDQPQAQDMGFDYSLANTAGFVTDATLDNAKERPRYGMVYPTGWLRNGQPTPRADKMSGEYVSSEVVNWLDNKKDSKPFFLYVAFTEVHSPLASPKKYLDMYSQYMSAYQKQHPDLFYGDWADKPWRGVGEYYANISYLDAQVGKVLDKIKAMGEEDNTIVIFTSDNGPVTREARKVYELNLAGETDGLRGRKDNLWEGGIRVPAIIKYGKHLPQGMVSDTPVYGLDWMPTLAKMMNFKLPTDRTFDGESLVPVLEQKALKREKPLIFGIDMPFQDDPTDEWAIRDGDWKMIIDRNNKPKYLYNLKSDRYETLNLIGKKPDIEKQMYGKFLKYKTDIDNDSLMKARGDKPEAVTWGEGHHHHHH”, the protein production entry is on record as “not failed”. Regarding “MSLASLPISNFFTFNHQSTLFTKVKNFMGVKHIGDCMKALINGTIYTSFSPVKKVSGLVISNERVLYAGDSSTALRIAELAGGEIIDLKGKFVMPAFFDSHLHLDELGMSLEMVDLRGVKSMEELVERVKKGRGRIIFGFGWDQDELGRWPTREDLDVIDRPVFLYRRCFHVAVMNSKMIDLLNLKPSKDFDESTGIVRERALEESRKIINEKILTVKDYKHYIESAQEHLLSLGVHSVGFMSVGEKALKALFELEREGRLKMNVFAYLSPELLDKLEELNLGKFEGRRLRIWGVKLFVDGSLGARTALLSEPYTDNPTTSGELVMNKDEIVEVIERAKPLGLDVAVHAIGDKAVDVALDAFEEAEFSGRIEHASLVRDDQLERIKELKVRISAQPHFIVSDWWIVNRVGEERAKWAYRLKTLSSITKLGFSTDSPIEPADPWVSIDAAVNRYVVDPGERVSREEALHLYTHGSAQVTLAEDLGKLERGFRAEYIILDRDPLKEMKGIITITTDPNSSSVDKLAAALEHHHHHH”, the protein production entry was “not failed”. Consider “MSLASYFIGVDVGTGSARAGVFDLQGRMVGQASREITMFKPKADFVEQSSENIWQAVCNAVRDAVNQADINPIQVKGLGFDATCSLVVLDKEGNPLTVSPSGRNEQNVIVWMDHRAITQAERINATKHPVLEFVGGVISPEMQTPKLLWLKQHMPNTWSNVGHLFDLPDFLTWRATKDETRSLCSTVCKWTYLGHEDRWDPSYFKLVGLADLLDNNAAKIGATVKPMGAPLGHGLSQRAASEMGLIPGTAVSVSIIDAHAGTIGILGASGVTGENANFDRRIALIGGTSTAHMAMSRSAHFISGIWGPYYSAILPEYWLNEGGQSATGALIDHIIQSHPCYPALLEQAKNKGETIYEALNYILRQMAGEPENIAFLTNDIHMLPYFHGNRSPRANPNLTGIITGLKLSTTPEDMALRYLATIQALALGTRHIIETMNQNGYNIDTMMASGGGTKNPIFVQEHANATGCAMLLPEESEAMLLGSAMMGTVAAGVFESLPEAMAAMSRIGKTVTPQTNKIKAYYDRKYRVFHQMYHDHMRYQALMQEGEGHHHHHH”, for which the protein production result was “not failed”.

Take “MSLCINPQCSKPQNPDNVLFCQTCGSELLLEGRYRVVSVLGGGGFGKTFAVNDTRTQTARVLKVLINNHPKAVELFQREAQVLALLNYPGIPTVEANGYFVYFPRNIQEPMHCLIMEKIEGLDLGEYLRQRDYRPIDEKLALQWFKEVVTILHQVHQQGLFHRDIKPSNIMLRADGRLVLIDFGTARSVTGTYIAKQAVGQVTGVISAGYTPSEQINGQAVQQSDFFALGRTFIYLLTGKEPSDPTIYNYLKDELHWRDGLLSSESNSVPPTVGYGVPPTVGDRTNILPQFADLLDQMMERLPGQRPQNTHIILQRLADIEKNLHPSSPPPPKPKGWTRRRLITVVGFSSLGLTGALAISRLLPKTTVIVSQEGGGDYKTIGAAMQNAQPGMRILVRPGLYQESLVLDKALKIIGDGAKAEIIIESKGASCLVVKTDQAEIRGLTFRSRAGTENKQYFAVDISQGQIILADCDITSDSLSGIGIHGATANPVIQKCQIHDGKQSGIYLYENSRGTIEDCDLFGNTTTEITVDAAQPIIRRCKIRQDKEGGILFRNQAQGTVEDCDIFNNNLSGIEIRDSSNPIIQKCRIHDNQQGDGILVHLNGRGTVEDCNIFGNGFSGVEIRDRGNPVIRRCNINKNKYYGVYAYKNSMGTVENCDLTGNIRSAINVDETSQLQRSGNVELEHHHHHH”: the protein production result is given as “failed”.

For “MSLDCRERIEKDLELLEKNLMEMKSIKLSDDEEAVVERALNYRDDSVYYLEKGDHITSFGCITYAHGLLDSLRMLHRIIEGHHHHHH”, the protein production entry was “not failed”. Next, “MSLDIAVVGIGYVGLVSATCFAELGANVRCIDTDRNKIEQLNSGTIPIYEPGLEKMIARNVKAGRLRFGTEIEQAVPEADIIFIAVGTPAGEDGSADMSYVLDAARSIGRAMSRYILIVTKSTVPVGSYRLIRKAIQEELDKREVLIDFDIASNPEFLKEGNAIDDFMKPDRVVVGVDSDRARELITSLYKPMLLNNFRVLFMDIASAEMTKYAANAMLATRISFMNDVANLCERVGADVSMVRLGIGSDSRIGSKFLYPGCGYGGSCFPKDVKALIRTAEDNGYRMEVLEAVERVNEKQKSILFDKFSTYYKGNVQGRCVAIWGLSFKPGTDDMREAPSLVLIEKLLEVGCRVRVYDPVAMKEAQKRLGDKVEYTTDMYDAVRGAEALFHVTEWKEFRMPDWSALSQAMAASLVIDGRNVYELPADSDFTLLNIGNSAIESEGHHHHHH”: “not failed”.
